Results as given in US20230295308A1, “ANTAGONISTIC BIPARATOPIC ANTIBODIES THAT SPECIFICALLY BIND FIBROBLAST GROWTH FACTOR RECEPTOR 2 AND METHODS OF USING SAME” (The Broad Institute, Inc., priority 2020, published 2023).
Entries after “also recorded” stand apart in the source; their conditions may differ.

Assays:
[1] = biological target: FGFR2 on SNU-16 gastric cancer cell line with FGFR2 amplification (UniProt P21802); assay: FACS on SNU-16 cells, % No. of cells with FITC+ [cont.]
[2] = test system: FGFR2-PHDGH fusion expressing BaF3 cells; assay: growth of BaF3 cells expressing FGFR2-PHGDH fusion, absence of FGF ligands (FIG. 9); format: cell-based; settings: absence of FGF ligands
Protocol: Antibodies A-F were tested to determine whether they could inhibit the ligand-induced growth of BaF3 cells expressing FGFR2IIIb. Antibodies C, D, and E, which bind FGFR2 Ig-2 and Ig-3, were effective in blocking ligand-induced growth of BaF3 cells expressing wild-type FGFR2IIIb (FIG. 8). The effects of antibodies A-F were then tested on BaF3 cells expressing FGFR2-PHDGH fusions. […] Antibody F inhibited the FGFR2-PHDGH activating fusion in BaF3 cells (FIG. 9).

[3] = biological target: FGFR2 on SNU-16 gastric cancer cell line with FGFR2 amplification (UniProt P21802); assay: row 'Kd (nM) (FACS)'; FACS on SNU-16 cells
[4] = biological target: FGFR2 on SNU-16 gastric cancer cell line with FGFR2 amplification (UniProt P21802); assay: FACS on SNU-16 cells, % cells with FITC+ [cont.]
[5] = biological target: T1, FGFR2IIIb; assay: row 'Kd (nM) (patent)', value quoted from the source patent; method: solution equilibrium titration (SET)/ELISA+ECL-FGFR2IIIb
T1 construct: also called purified FGFR2IIIb
T1 chain: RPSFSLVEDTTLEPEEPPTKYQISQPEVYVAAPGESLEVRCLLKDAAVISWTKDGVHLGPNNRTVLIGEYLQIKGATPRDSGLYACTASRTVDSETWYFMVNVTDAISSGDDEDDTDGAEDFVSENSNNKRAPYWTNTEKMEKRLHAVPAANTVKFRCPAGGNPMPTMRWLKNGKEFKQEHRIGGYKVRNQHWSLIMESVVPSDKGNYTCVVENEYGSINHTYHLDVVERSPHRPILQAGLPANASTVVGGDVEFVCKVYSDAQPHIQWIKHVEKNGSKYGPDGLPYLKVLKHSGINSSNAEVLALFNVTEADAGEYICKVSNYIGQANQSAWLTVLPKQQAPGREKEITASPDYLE

[6] = test system: BaF3 cells overexpressing FGFR2-PHGDH; assay: combination of BGJ398 and anti-FGFR2 bivalent antibody, isobolograms and Loewe scores (FIGS. 14, 15); format: cell-based; settings: absence of FGF10, treated for 5 days
Text: FIGS. 14B-14D provide isobolograms showing synergy between FGFR inhibitor and the anti-[…] bivalent antibody on the different days and supporting the results shown in FIG. 14A. FIG. 14B corresponds to 3 days after treatment with the BGJ398 inhibitor; FIG. 14C corresponds to 4 days after treatment with the BGJ398 inhibitor; and FIG. 14D corresponds to 5 days after treatment with the BGJ398 inhibitor. FIG. 14E provide Loewe scores showing synergy between the FGFR inhibitor and the anti-FGF2 bivalent antibody on the different days and supporting the results shown in FIG. 14A.
FIG. 15A presents charts showing synergy between the FGFR2 small molecule inhibitor BGJ398 and an anti-FGFR2 bivalent antibody (Antibody D) in the presence of FGF ligand (+FGF) in a cell-based assay using BaF3 cells overexpressing an FGFR2 fusion molecule (FGFR2-PHGDH) after 3, 4 and 5 days of treatment with the inhibitor and the antibody. […] FIGS. 15B-15D provide isobolograms showing synergy between the FGFR inhibitor and the anti-FGF2 bivalent antibody on the different days and supporting the results shown in FIG. 15A. FIG. 15B corresponds to 3 days after treatment with the BGJ398 inhibitor; FIG. 15C corresponds to 4 days after treatment with the BGJ398 inhibitor; and FIG. 15D corresponds to 5 days after treatment with the BGJ398 inhibitor. […]

[7] = test system: FGFR2-PHDGH fusion expressing BaF3 cells; assay: ligand stimulated (FGF10) growth of FGFR2-PHGDH fusion expressing BaF3 cells (FIG. 10); format: cell-based; settings: FGF10 present
Protocol: FIG. 10 is a graph showing that antibodies C, D, E and F have activity against ligand stimulated growth of FGFR2-PHDGH fusion expressing BaF3 cells.
The growth of BaF3 cells expressing an FGFR2-PHDGH fusion was assayed in the presence of FGF ligand, FGF10. Antibodies C, D, E and F inhibited ligand stimulated growth of FGFR2-PHDGH fusion expressing BaF3 cells (FIG. 10). Based on the results reported herein above, antagonistic biparatopic antibodies are made using the FGFR2 antibody combinations shown in FIG. 11A. These combinations result in increased growth inhibition effects in oncogenic or cancer cells (e.g., transformed BaF3 cells) that overexpressed […]. Thus, antibodies that bind to epitopes have increased inhibitory and killing effects against cancer cells. Designs for antagonistic biparatopic antibodies are shown at FIGS. 11B and 11C. Advantageously, including complementary mutations in VH-VL and CH1-CL on one-half of the biparatopic antibody results in preferential heterodimeric pairing between two different chains rather than chains from the other half of the same antibody. Alternatively, a linker method is used to create scFab, scFv, or DuoBodies. In this method two antibody chains are each generated in different cells and mixed in vitro. Such methods are known in the art and described, for example, by K. Ding et al, March 2017, Appl. Microbiol. […]

[8] = biological target: FGFR2b alpha IIIb antigen (UniProt P21802); assay: SPR (Biacore), antibody immobilized, FGFR2b alpha IIIb in flow
[9] = biological target: FGFR2b alpha IIIb antigen (UniProt P21802); assay: SPR (Biacore), antibody on chip, FGFR2b alpha IIIb antigen
[10] = biological target: FGFR2 on SNU-16 gastric cancer cell line with FGFR2 amplification (UniProt P21802); assay: FACS on SNU-16 cells, % cells with FITC+ against log antibody concentration; Kd printed in the legend box [cont.]
[11] = biological target: FGFR2b alpha IIIb (Homo sapiens, UniProt P21802); assay: Surface Plasmon Resonance (SPR) binding; settings: FGFR2b alpha IIIb antigen
Text: FIGS. 17A-17C provide a schematic and tabular data related to assessments made to compare the avidity of biparatopic antibodies to that of their parental (bivalent monospecific) antibodies.
Surface Plasmon Resonance (SPR) as known in the art was used to determine the binding affinities of biparatopic antibodies. The SPR-based binding method involves immobilization of a ligand (antibody) on the surface of a sensor chip. The binding partner of interest or an analyte (FGFR2 ECD) flow through the flow channel. Different concentrations of an analyte flow over the ligand, and the interactions of ligand-analyte can be characterized. The SPR signal originates from changes in the refractive index of the […] at the surface of the sensor chip. The increase in mass associated with a binding event causes a proportional increase in the refractive index, which is observed as a change in response-resonance signal. In brief, for the experiments using the antibodies described herein, the SPR assay was carried out by immobilizing antibodies (used as […]) at a concentration ranging from 1-1000 nM and flow-through FGFR2b alpha IIIb antigen (used as […]). The antibody kinetic data for the interaction with FGFR2b alpha IIb antigen were fitted to the 2-state and 1-1 binding models using Biocore software. The mean and standard deviation KD values are derived from at least three independent runs.
Using SPR, the kinetics of 6 monospecific and 13 biparatopic antibodies for binding to a single antigen, FGFR2b alpha IIb, was measured so as to compare avidity of the biparatopic antibodies to their parental antibodies. Without wishing to be bound by theory, it was expected that the biparatopic antibodies would bind to the FGFR2 antigen more tightly than their parental antibodies and that the tighter binding biparatopic antibodies among the antibodies that were assessed would be more efficient in blocking FGFR2 dimerization (FIG. 17A), thereby leading to inhibition or blocking of constitutive FGFR2 signaling and/or oncogenic transformation. […]

EC50 (read off the curve) [1]: 1 mg/L
Kd [3]: 8.81 nM
EC50 (read off the curve) [4]: 1 mg/L
Kd [5]: 5.6 nM
Binding Stoichiometry [8]: 2.1
Kd [9]: 7.5 nM
Kd [10]: 8.81 nM
Kd [11]: 7.5 nM
B1: 12433 (antibody, V domains shown)
VH: QVQLVQSGAEVKKPGESLKISCKGSGYSFTNYYIHWVRQMPGKGLEWMGAIYPDNSDTTYSPSFQGQVTISADKSISTAYLQWSSLKASDTAMYYCARGADIWGQGTLVTVSS
VL: DIQMTQSPSSLSASVGDRVTITCRASQDIDPYLSNWYQQKPGKAPKLLIYDASNLQSGVPSRFSGSGSGTDFTLTISSLQPEDFATYYCQQTTSHPYTFGQGTKVEIK
notes: the duobody scheme implies IgG1 with K409R or F405L; also called Antibody F; N12433
inhibitory activity against the FGFR2-PHGDH activating fusion in BaF3 cells [2]: inhibitory activity; also recorded: inhibited
synergy with BGJ398 in inhibiting FGFR2-PHGDH driven BaF3 cell growth [6]: synergizes
inhibition of ligand stimulated growth of FGFR2-PHGDH fusion expressing BaF3 cells [7]: have activity; also recorded: inhibited
